The experiment concerns E. coli derivative strain which overexpressed an acyl-CoA synthetase (fadD) gene and expressed an olivetolic acid cyclase (OAC) from Cannabis sativa. Description: OL, OLA and PDAL production in E. coli from plasmid-expressed Type-III PKS genes. It is filed as cell-based. The conditions noted are these: gene on plasmid; for Total: OL + OLA + PDAL; for OL / OLA / PDAL: constitutive promoter, culture spiked with 4 mM hexanoic acid. As for the experimental part: To test olivetolic acid production in E. coli, strains comprising a putative OLS gene and an OAC gene from C. sativa were inoculated in multi-well plates containing LB supplemented with 1% glucose and appropriate concentrations of antibiotics. After 6 hours of cultivation at 32° C., the cells were transferred with a 10% inoculum to a P-limited seed medium (see Table 2) and cultivated for ˜18 hours at 32° ° C. to reach an OD of 2.0-4.0. The cultures were transferred with a 20% inoculum in a P-minimal medium (see Table 3) supplemented with 2% glucose and appropriate concentrations of antibiotics. After 3 hours of cultivation at 32° C., the culture was spiked with 4 mM hexanoic acid (˜OD 1.5-2.0). The resulting cultures were then harvested at either 3 hours or 21 hours post hexanoic acid spike; a final OD was taken. 300 μL of butyl acetate containing 500 mg/L undecanoic acid was added to each multi-well plate. The plates were then vortexed for 30 minutes at 1500 rpm and centrifuged for 10 minutes at 4500 rpm. 50 μL of organic layer was transferred to a 96-well plate and derivatized with 50 μL of N,O-Bis(trimethylsilyl)trifluoroacetamide (BSTFA). The plate was then incubated at room temperature for 2 hours to allow for complete derivatization. The samples were then run on GC-FID for analytical quantification of olivetolic acid (OLA), olivetol (OL), PDAL, and hexanoic acid.
Olivetol, PDAL, OLA, HTAL, CBGA and combinations thereof were analyzed by LCMS or LCMS/MS methods using C18 reversed phase chromatography coupled to either EXACTIVE™ (ThermoFisher) or QTRAP® 4500 (Sciex) mass spectrometers.
For reversed phase LCMS, compounds were identified by their LC retention times and MRM transitions specific to the compounds. LCMS/MS analysis was conducted on a Shimadzu UHPLC system coupled with AB Sciex QTRAP 4500 mass spectrometer. Agilent Eclipse XDB C18 column (4.6×3.0 mm, 1.8 μm) was used with a 1-min gradient elution at 1 mL/min using water containing 0.1% ammonia acetate as mobile phase A and 90% methanol containing 0.1% ammonia acetate as mobile phase B. The LC column temperature was maintained at 45° C. Negative ionization mode was used for all the analytes.
The genes for 20 Type-III PKS enzymes were codon optimized for E. coli and cloned under control of a constitutive promoter into an expression vector (p15a replicon, carbenicillin resistance marker). The 20 plasmids were transformed into an E. coli derivative strain which overexpressed an acyl-CoA synthetase (fadD) gene and expressed an olivetolic acid cyclase (OAC) from Cannabis sativa.
The in vivo assay procedure and analytical methods were performed as described above.

B1: PKA56805.1: Type-III PKS enzyme from Apostasia shenzhenica (protein, listed as Apostasia shenzhenica)
chain: MPGVEAVAQNISPARSDGLAAILAIGRANPPNIVEQSSFADLYFRLHNSEHLVDLKKKLQRICDRTAIRKRHFVWDEELLMANPCLRTVTEPSLNARQKVAITEIPKLGAAAATNAIAEWGRPKSDITHLIFCTTSGMDLPGADYQLIRLLGLNDNIQRIMLYQQGCFAGGTVLRLAKVLAESRRSARVLIVCAETTTVLVRSPSVENQDDLVTQALFADGASALIVGADPNAGEKPVFSVFSTSQVLLPDSDGAIGGHVGENGLTATLHRDVPAVISKNVGKCLEEAFTPLGISDWNSIFWAAHPGGRAILDQVEERVGLKPEKMWASRHVLAEYGNMSSVSVHFALDEIRRRSAKEGKATTGDGFEWGVLFGFGPGLTVETVVLRSAPISA
modifications: (1)..(393) PKA56805.1
In the case of B1, the Total amounted to 37 µM, the OL stood at 27 µM, the OLA amounted to 10 µM and the PDAL is 0 µM.

B2: A0A0D9WZ61: Type-III PKS enzyme from Leersia perrieri (protein, listed as Leersia perrieri)
chain: MAPVPANGAATATATTQEIRRAQRADGPATVLAIGTANPETYVSQDEYADYYFRITKSEHLPELKDKLRRICNKSGIDKRFMYVNEDVMEAHPEFADRNQSSLNARVEIASKAVPELAAAASAKAIAEWGRPATDITHLIFSTYSGVKAPSGDRLLASLLGLRPNVSRTTLSLHGCYGGGRALQLAKELAENNRGARVLVACAEMTLIAFYGPEVGCNDTIVGQALFGDGSGAVIVGADPVDAAGERPLFEMAFASQTTVPDSEGAITMQHTKGGMDYHIGSGIPEMLAGNIERCLADAFDSIGVAADWKDLFWAVHPGGRRILDLIEEALGLDNGAMASRQVLREFGNMSGTTVIFVLNELRRRFKANGAEGADWGALMAFGPGVTIETMLLRVAAGLKGN
modifications: (1)..(402) ProtKB - A0A0D9WZ61
For the molecule B2, the Total was determined as 34 µM, the OL is 34 µM, the OLA amounted to 0 µM and the PDAL was found to be 0 µM.

B3: AAZ32093.1: Type-III PKS enzyme from Oncidium Gower Ramsey (protein)
chain: MPSLESIKNAPKTDGFASILAIGSANPENIIEQSTYPDFFFHLTNSEHLVDLKNKFQRICDKTAIRKRHFAWNEELLTANPCLRTFMDNSLNVRQEFVIREIPKLGAQAATKAIQEWGQSKSRITHLIFSTTSGMDLPGADYQLTQILGLNPNIERVMLYHQGCFAGGTTLRLTKSLAESRKGARVLVVCAETTSALTFRAPSEEHQDDLVVQALFGDGASALIVGADPDEAADERASFIIVSTSQVLLSDSAGAIGGHLSEGGLIVTLHRDVPQIVSKNVGNCLKEAFTPLGISDWNSIFWVPHPGGPAILDQIEERVGLNPEKLIISRHMLAEYGNMLGVSVHFALDEMRKRSAKEGKATTGEGLDWGVLLGIGPGITVETVVLHSVRI
modifications: Oncidium hybrid cultivar; (1)..(391) AAZ32093.1
notes: Type-III PKS enzyme from Oncidium Gower Ramsey
In the case of B3, the Total is 16 µM, the OL was 16 µM, the OLA was determined as 0 µM and the PDAL amounted to 0 µM.

B4: CAA10514.1: Type-III PKS enzyme from Bromheadia finlaysoniana (protein, listed as Bromheadia finlaysoniana)
chain: MASQVSPPSINMAPKADGFASILAIGRANPKNFIEQSTFPDFFFRVTNTEHMVDLKKKFQRICDKTSIRKRHFIWNEELLTANPSLCTFMGNSLNLRHEVAVREIPKLGAEAATKAIQEWGQPKSFITHLVFCTTSGMDLPGADYQLTQILGLNLDIERVMLHQQGCFLGGTTLRLAKYLAESRKGARVLVVCAETTTEFFRAPSEEHQEDLVTQSLFGDGASALIVGADPHEGARERASFILVSSSQVLLANSAHAITGHVSEGGIKATLHRDVPQIISNNLGKCLEEAFTPLGISDWNSIFWVLHPGGRAILDQVEEKMGLEPEKLLISRHVLLEYGNMSSVCVHFALDEMRKRSSNEGKATTGEGLEWGVLFGFGPGLTIETVVLRSVSIS
modifications: (1)..(394) CAA10514.1
For the molecule B4, the Total came out at 61 µM, the OL came out at 0 µM, the OLA was 0 µM and the PDAL was determined as 61 µM.

The values above are taken from US20240240160A1, “NOVEL OLIVETOL SYNTHASES FOR C[…]” (priority 2021, published 2024).
